# In patent US20260274985A1 (MYTHIC THERAPEUTICS, published 2026):
# T1: Human TROP2 Protein, His Tag (Acro Biosystems) (human, UniProt P09758 27-274)
# T1 construct: Bought antigen used at 50 nM in the Octet screen; also called TACSTD2; not shown: His tag
# T1 sequence (looked up): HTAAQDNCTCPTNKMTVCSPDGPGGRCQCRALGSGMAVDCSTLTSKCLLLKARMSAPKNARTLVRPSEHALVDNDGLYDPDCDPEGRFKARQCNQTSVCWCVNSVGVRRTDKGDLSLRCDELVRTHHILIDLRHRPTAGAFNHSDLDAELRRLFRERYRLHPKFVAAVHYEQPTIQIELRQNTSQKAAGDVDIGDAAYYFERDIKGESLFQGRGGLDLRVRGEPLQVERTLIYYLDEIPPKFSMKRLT
# Target: T1, Human TROP2 Protein, His Tag (Acro …)
# Assay: BLI (Octet) [1/2]
# Description: After allowing for four days of protein expression, cell culture supernatants were collected, quantified by SDS-PAGE analysis (DNS), and the pH dependence of the variant was evaluated using biolayer interferometry (BLI) on an Octet RED 96e instrument. Briefly, cell culture supernatants were diluted based on qualitative expression level of the variant determined by visual examination of SDS-PAGE gels, 5 μL of cell culture supernatant was diluted into 195 μL of 1×PBST, pH 7.4 for high expressors, 25 μL of cell culture supernatant was diluted into 175 μL of 1×PBST, pH 7.4 for medium expressors and 100 μL of cell culture supernatant was diluted into 100 μL of 1×PBST, pH 7.4 for low expressors for loading onto the sensor tips. The resulting diluted supernatants were then captured on an anti-human Fc sensor (Forte Bio). A baseline was established using 1×PBST (50 mM Potassium Phosphate Buffer+150 mM NaCl+0.05% Tween 20) pH 7.4, and the sensor was associated with 50 nM of TROP2 (Human TROP2 Protein, His Tag, Acro Biosystems) in 1×PBST pH 7.4 for 120 sec to generate an association curve. In the dissociation phase, the antibody-antigen complex on the sensor was exposed to 1×PBST pH 7.4 or pH 5.4, for 300 sec. Association and dissociation phase curves were examined for the starting ABPC antibody (with no substitutions) and each corresponding antibody variant at pH 5.4 and pH 7.4 to inform on two criteria: a) enhanced dissociation (i.e., higher koff values) at pH 5.4 due to histidine or alanine substitution compared to the starting ABPC, (with no substitutions), and b) reduced dissociation at pH 7.4 (i.e., lower koff values) compared to pH 5.4 in the antibody variant itself and with the starting ABPC (with no substitutions). […] It was also noted that while some mutations obliterated TROP2 binding, others were tolerated with little or n change in TROP2 binding kinetics.
row,Binder,binding result
1,"MYT11726 (antibody, V domains shown, hu7E6SVG variant, His at HCV position 61 (H2 12); screened as IgG in Expi293 supernatant) VH: QVQLQESGPGLVKPSETLSLTCTVSGGSISSYGVHWIRQPPGKGLEWIGVIWTSGVTDYNHALMGRVTISVDTSKNQFSLKLSSVTAADTAVYYCARDGDYDRYTMDYWGQGTLVTVSS VL: DIVMTQSPDSLAVSLGERATINCRASKSVSTSGYSYMHWYQQKPGQPPKLLIYLASNLESGVPDRFSGSGSGTDFTLTISSLQAEDVAVYYCQHSRELPYTFGQGTKLEIK",binds
2,"MYT11727 (antibody, V domains shown, hu7E6SVG variant, His at HCV position 62 (H2 13); screened as IgG in Expi293 supernatant) VH: QVQLQESGPGLVKPSETLSLTCTVSGGSISSYGVHWIRQPPGKGLEWIGVIWTSGVTDYNSHLMGRVTISVDTSKNQFSLKLSSVTAADTAVYYCARDGDYDRYTMDYWGQGTLVTVSS VL: DIVMTQSPDSLAVSLGERATINCRASKSVSTSGYSYMHWYQQKPGQPPKLLIYLASNLESGVPDRFSGSGSGTDFTLTISSLQAEDVAVYYCQHSRELPYTFGQGTKLEIK",binds
3,"MYT11732 (antibody, V domains shown, hu7E6SVG variant, His at HCV position 97 (H3 02); screened as IgG in Expi293 supernatant) VH: QVQLQESGPGLVKPSETLSLTCTVSGGSISSYGVHWIRQPPGKGLEWIGVIWTSGVTDYNSALMGRVTISVDTSKNQFSLKLSSVTAADTAVYYCAHDGDYDRYTMDYWGQGTLVTVSS VL: DIVMTQSPDSLAVSLGERATINCRASKSVSTSGYSYMHWYQQKPGQPPKLLIYLASNLESGVPDRFSGSGSGTDFTLTISSLQAEDVAVYYCQHSRELPYTFGQGTKLEIK",binds
4,"MYT11740 (antibody, V domains shown, screened as IgG in Expi293 supernatant) VH: QVQLQESGPGLVKPSETLSLTCTVSGGSISSYGVHWIRQPPGKGLEWIGVIWTSGVTDYNSALMGRVTISVDTSKNQFSLKLSSVTAADTAVYYCARDGDYDRYHMDYWGQGTLVTVSS VL: DIVMTQSPDSLAVSLGERATINCRASKSVSTSGYSYMHWYQQKPGQPPKLLIYLASNLESGVPDRFSGSGSGTDFTLTISSLQAEDVAVYYCQHSRELPYTFGQGTKLEIK",no binding (tested: 50 nM)
5,"MYT11735 (antibody, V domains shown, hu7E6SVG variant, His at HCV position 100 (H3 05); screened as IgG in Expi293 supernatant) VH: QVQLQESGPGLVKPSETLSLTCTVSGGSISSYGVHWIRQPPGKGLEWIGVIWTSGVTDYNSALMGRVTISVDTSKNQFSLKLSSVTAADTAVYYCARDGHYDRYTMDYWGQGTLVTVSS VL: DIVMTQSPDSLAVSLGERATINCRASKSVSTSGYSYMHWYQQKPGQPPKLLIYLASNLESGVPDRFSGSGSGTDFTLTISSLQAEDVAVYYCQHSRELPYTFGQGTKLEIK",binds
6,"MYT11739 (antibody, V domains shown, hu7E6SVG variant, His at HCV position 104 (H3 09); screened as IgG in Expi293 supernatant) VH: QVQLQESGPGLVKPSETLSLTCTVSGGSISSYGVHWIRQPPGKGLEWIGVIWTSGVTDYNSALMGRVTISVDTSKNQFSLKLSSVTAADTAVYYCARDGDYDRHTMDYWGQGTLVTVSS VL: DIVMTQSPDSLAVSLGERATINCRASKSVSTSGYSYMHWYQQKPGQPPKLLIYLASNLESGVPDRFSGSGSGTDFTLTISSLQAEDVAVYYCQHSRELPYTFGQGTKLEIK",no binding (tested: 50 nM)
7,"MYT11728 (antibody, V domains shown, hu7E6SVG variant, His at HCV position 63 (H2 14); screened as IgG in Expi293 supernatant) VH: QVQLQESGPGLVKPSETLSLTCTVSGGSISSYGVHWIRQPPGKGLEWIGVIWTSGVTDYNSAHMGRVTISVDTSKNQFSLKLSSVTAADTAVYYCARDGDYDRYTMDYWGQGTLVTVSS VL: DIVMTQSPDSLAVSLGERATINCRASKSVSTSGYSYMHWYQQKPGQPPKLLIYLASNLESGVPDRFSGSGSGTDFTLTISSLQAEDVAVYYCQHSRELPYTFGQGTKLEIK",binds
8,"MYT11730 (antibody, V domains shown, hu7E6SVG variant, His at HCV position 65 (H2 16); screened as IgG in Expi293 supernatant) VH: QVQLQESGPGLVKPSETLSLTCTVSGGSISSYGVHWIRQPPGKGLEWIGVIWTSGVTDYNSALMHRVTISVDTSKNQFSLKLSSVTAADTAVYYCARDGDYDRYTMDYWGQGTLVTVSS VL: DIVMTQSPDSLAVSLGERATINCRASKSVSTSGYSYMHWYQQKPGQPPKLLIYLASNLESGVPDRFSGSGSGTDFTLTISSLQAEDVAVYYCQHSRELPYTFGQGTKLEIK",binds
9,"MYT11743 (antibody, V domains shown, screened as IgG in Expi293 supernatant) VH: QVQLQESGPGLVKPSETLSLTCTVSGGSISSYGVHWIRQPPGKGLEWIGVIWTSGVTDYNSALMGRVTISVDTSKNQFSLKLSSVTAADTAVYYCARDGDYDRYTMDHWGQGTLVTVSS VL: DIVMTQSPDSLAVSLGERATINCRASKSVSTSGYSYMHWYQQKPGQPPKLLIYLASNLESGVPDRFSGSGSGTDFTLTISSLQAEDVAVYYCQHSRELPYTFGQGTKLEIK",binds
10,"MYT11738 (antibody, V domains shown) VH: QVQLQESGPGLVKPSETLSLTCTVSGGSISSYGVHWIRQPPGKGLEWIGVIWTSGVTDYNSALMGRVTISVDTSKNQFSLKLSSVTAADTAVYYCARDGDYDHYTMDYWGQGTLVTVSS VL: DIVMTQSPDSLAVSLGERATINCRASKSVSTSGYSYMHWYQQKPGQPPKLLIYLASNLESGVPDRFSGSGSGTDFTLTISSLQAEDVAVYYCQHSRELPYTFGQGTKLEIK",binds
11,"MYT11736 (antibody, V domains shown, hu7E6SVG variant, His at HCV position 101 (H3 06); screened as IgG in Expi293 supernatant) VH: QVQLQESGPGLVKPSETLSLTCTVSGGSISSYGVHWIRQPPGKGLEWIGVIWTSGVTDYNSALMGRVTISVDTSKNQFSLKLSSVTAADTAVYYCARDGDHDRYTMDYWGQGTLVTVSS VL: DIVMTQSPDSLAVSLGERATINCRASKSVSTSGYSYMHWYQQKPGQPPKLLIYLASNLESGVPDRFSGSGSGTDFTLTISSLQAEDVAVYYCQHSRELPYTFGQGTKLEIK",no binding (tested: 50 nM)
12,"MYT11733 (antibody, V domains shown, hu7E6SVG variant, His at HCV position 98 (H3 03); screened as IgG in Expi293 supernatant) VH: QVQLQESGPGLVKPSETLSLTCTVSGGSISSYGVHWIRQPPGKGLEWIGVIWTSGVTDYNSALMGRVTISVDTSKNQFSLKLSSVTAADTAVYYCARHGDYDRYTMDYWGQGTLVTVSS VL: DIVMTQSPDSLAVSLGERATINCRASKSVSTSGYSYMHWYQQKPGQPPKLLIYLASNLESGVPDRFSGSGSGTDFTLTISSLQAEDVAVYYCQHSRELPYTFGQGTKLEIK",no binding (tested: 50 nM)
13,"MYT11734 (antibody, V domains shown, hu7E6SVG variant, His at HCV position 99 (H3 04); screened as IgG in Expi293 supernatant) VH: QVQLQESGPGLVKPSETLSLTCTVSGGSISSYGVHWIRQPPGKGLEWIGVIWTSGVTDYNSALMGRVTISVDTSKNQFSLKLSSVTAADTAVYYCARDHDYDRYTMDYWGQGTLVTVSS VL: DIVMTQSPDSLAVSLGERATINCRASKSVSTSGYSYMHWYQQKPGQPPKLLIYLASNLESGVPDRFSGSGSGTDFTLTISSLQAEDVAVYYCQHSRELPYTFGQGTKLEIK",no binding (tested: 50 nM)
14,"MYT11742 (antibody, V domains shown, screened as IgG in Expi293 supernatant) VH: QVQLQESGPGLVKPSETLSLTCTVSGGSISSYGVHWIRQPPGKGLEWIGVIWTSGVTDYNSALMGRVTISVDTSKNQFSLKLSSVTAADTAVYYCARDGDYDRYTMHYWGQGTLVTVSS VL: DIVMTQSPDSLAVSLGERATINCRASKSVSTSGYSYMHWYQQKPGQPPKLLIYLASNLESGVPDRFSGSGSGTDFTLTISSLQAEDVAVYYCQHSRELPYTFGQGTKLEIK",binds
15,"MYT11737 (antibody, V domains shown, screened as IgG in Expi293 supernatant) VH: QVQLQESGPGLVKPSETLSLTCTVSGGSISSYGVHWIRQPPGKGLEWIGVIWTSGVTDYNSALMGRVTISVDTSKNQFSLKLSSVTAADTAVYYCARDGDYHRYTMDYWGQGTLVTVSS VL: DIVMTQSPDSLAVSLGERATINCRASKSVSTSGYSYMHWYQQKPGQPPKLLIYLASNLESGVPDRFSGSGSGTDFTLTISSLQAEDVAVYYCQHSRELPYTFGQGTKLEIK",binds
16,"MYT11744 (antibody, V domains shown, hu7E6SVG variant, His at LCV position 24 (L1 01); screened as IgG in Expi293 supernatant) VH: QVQLQESGPGLVKPSETLSLTCTVSGGSISSYGVHWIRQPPGKGLEWIGVIWTSGVTDYNSALMGRVTISVDTSKNQFSLKLSSVTAADTAVYYCARDGDYDRYTMDYWGQGTLVTVSS VL: DIVMTQSPDSLAVSLGERATINCHASKSVSTSGYSYMHWYQQKPGQPPKLLIYLASNLESGVPDRFSGSGSGTDFTLTISSLQAEDVAVYYCQHSRELPYTFGQGTKLEIK",binds
17,"MYT11729 (antibody, V domains shown, hu7E6SVG variant, His at HCV position 64 (H2 15); screened as IgG in Expi293 supernatant) VH: QVQLQESGPGLVKPSETLSLTCTVSGGSISSYGVHWIRQPPGKGLEWIGVIWTSGVTDYNSALHGRVTISVDTSKNQFSLKLSSVTAADTAVYYCARDGDYDRYTMDYWGQGTLVTVSS VL: DIVMTQSPDSLAVSLGERATINCRASKSVSTSGYSYMHWYQQKPGQPPKLLIYLASNLESGVPDRFSGSGSGTDFTLTISSLQAEDVAVYYCQHSRELPYTFGQGTKLEIK",binds
18,"MYT11731 (antibody, V domains shown, hu7E6SVG variant, His at HCV position 96 (H3 01); screened as IgG in Expi293 supernatant) VH: QVQLQESGPGLVKPSETLSLTCTVSGGSISSYGVHWIRQPPGKGLEWIGVIWTSGVTDYNSALMGRVTISVDTSKNQFSLKLSSVTAADTAVYYCHRDGDYDRYTMDYWGQGTLVTVSS VL: DIVMTQSPDSLAVSLGERATINCRASKSVSTSGYSYMHWYQQKPGQPPKLLIYLASNLESGVPDRFSGSGSGTDFTLTISSLQAEDVAVYYCQHSRELPYTFGQGTKLEIK",no binding (tested: 50 nM)
